The source of these data is the nanobody polyreactivity screen of Harvey et al. (2022).

This data set can be described thus: yeast display, Sf9 membrane polyspecificity reagent, FACS + sequencing; frameworks hold sequencing errors. A digest of the protocol: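 Galactose-induced (36–48 hours) yeast carrying a synthetic nanobody display library were exposed to 10% biotinylated, detergent-solubilized Sf9 membrane reagent at 4 °C for 1 hour. FACS followed streptavidin microbead enrichment, using low and high (top ~1%) gates for expression (anti-HA) and reagent binding (streptavidin). Colony PCR, MiSeq 2 × 250 sequencing and CDR-length filtering followed. Labels for polyreactivity reflect the gate of origin.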
For the sequence “QVQLVESGGGLVQAGGSLSLSCSASGRTLYFYAMGWYRQAPGKERELVAAIRWRGGSTYYADSVKGRFTISRDNAKNTVYLQMNSLKPEDTAVYYCAADVPSGYDYWGQGTQVTVSS”, the “polyreactivity (PSR sort gate)” value was “high polyreactivity”.

Consider “QVQLVESGGGLVQAGGSLSLSSAASGSTFHRNTMGWYRQAPGKERELVAGISLRGVRTYYADSVKGRFTISRDNAKNSVYLQMNSLKPEDTAVYYCAGGGPYTRNFKLGYWGQGTQVSVSS”, for which the “polyreactivity (PSR sort gate)” value is recorded as “high polyreactivity”.

In the case of “QVQLVESGGGLVQAGGSLSLSWAASGSTFFNNAMGWYRQAPGKERELVAGISYGCGRTYYADSVKGRFTISRDNAKNTVFLQMNSLKPEDTAVYYCNTVTSPAPYYSYDRYYWGQGTQVTVSS”, the “polyreactivity (PSR sort gate)” value is “high polyreactivity”.

Regarding “QVQLVESGGGLVQAGGSLTLICAASGRTLYLNAMGWYRQAPRKERELVAISSGGSTYYADSVKGRFTISRDNAKNTVYLQMNSLKPEVTAVYYCNADEHYHFCYVFWYAYDYWGQGTQVTVSS”, the “polyreactivity (PSR sort gate)” value is reported as “low polyreactivity”.

Regarding “QVQLVESGGGLVQAGGSNRLSCADSGLIFGFNTMGSYRQAPAKEREMVAVISSSGGSTYYADSVKARFTISRDNAKKTVYFQMNSLKPEDTAVYYSAARAYPVRYRRRDYWGQGTQVTVSS”, the “polyreactivity (PSR sort gate)” value was “high polyreactivity”.

In the case of “QVQLVESGGGLVQAGGSQRLSCAASGRIFPGNAMGWYRQAPGKERELVAAIRWSGGSTYYADSVKGRFTISRDNAKNTVYLQMNSLKPEDTAVFYCAKDRGSVFKRKYYYWGQGTQVTVSS”, the “polyreactivity (PSR sort gate)” value is listed as “low polyreactivity”.

Regarding “QVQLVESGGGLVQAGGSRRLCCAASGITLPVYGMGWYIQAPGKERELVAVIDIVGITNYADSVKGRFPISRDNAKNTVYLMMNSLKPEDTAVYYCAKRYVYIADGGEYYYLGQGTQVTVSS”, the “polyreactivity (PSR sort gate)” value was “low polyreactivity”.

With “QVQLVESGGGLVQAGGSRRLRCAASGRTFWTYAMGWYRQAPGKEREFVAAISYSGSSTYADSVKGRFTISRDNATNTVYLQMKSLKPEDTAVYFCAAYLYTAVVAYGYVSWGQGTQVTVSS”, the “polyreactivity (PSR sort gate)” value is reported as “low polyreactivity”.

As to “QVQLVESGGGLVQAGGSRRLRCAASGSIISSYALGWYRQAPGQEMEFVAAISTGGRTYYADSVKGRFTISRDNGKNTVYLQMNSLKPEDTAVYYCAADGPLPHKVGTHTLDYWGQGTQVTVSS”, the “polyreactivity (PSR sort gate)” value is reported as “low polyreactivity”.

In the case of “QVQLVESGGGLVQAGGSRRLSCAASGFTFLAYALGWYRQAPGKERELVAAISWDGGSTYYADSVKGRFTISRDNAKNTVYLQMNSLKPEDTAVYYCNRRSRRQGGYWGQGTQVTVSS”, the “polyreactivity (PSR sort gate)” value is “high polyreactivity”.

For the sequence “QVQLVESGGGLVQAGGSRRLSCAASGFTFQDYAMGWYRQAPGKERELVAAISKSGGRTYYADSVKRRFTISRDNAKKTVYLEMNSLKPEETAVYYCAALPLYSQDYDYWGPGTQVTVSS”, the “polyreactivity (PSR sort gate)” value is “high polyreactivity”.

For “QVQLVESGGGLVQAGGSRRLSCAASGGTFVSYAMGWYIQAPGKERELVADITYSGGSTYYADSVKGRFTISRDNAKNTVYLQMNSLKPEDTAVYYCAADLGRNLLHTYYYWGQGTQVTVSS”, the “polyreactivity (PSR sort gate)” value was “low polyreactivity”.

With “QVQLVESGGGLVQAGGSRRLSCAASGISFGSYVMGWYRQAPGKERELVAAISWSGGSTNYADSVKGRFTISRDNSKNTVYLQMNILKPEDTAVFYCAAEYDVYGYYYWGQGTQVTVSS”, the “polyreactivity (PSR sort gate)” value is listed as “high polyreactivity”.

Turning to “QVQLVESGGGLVQAGGSRRLSCAASGRTFIVYAMGWYRQAPGKERELVARISSGSRTSYADSVKGRFTISRDNAKNTVYLQMNSLKPEDTAVYYCAKSRVIKYEFDYWGQGTQVTVSS”, the “polyreactivity (PSR sort gate)” value was “low polyreactivity”.

Consider “QVQLVESGGGLVQAGGSRRLSCAASGRTFQYYAMGCYRQAPGKERELVASITYNGDITYYADSVKGRFTISRDNAKNTVYLQMNSLKPEDTAVYYCAATKFSDFGYQAVIGYGYWGQGTQVTVSS”, for which the “polyreactivity (PSR sort gate)” value was “low polyreactivity”.

As for “QVQLVESGGGLVQAGGSRRLSCAASGRTIGVYAMGWYRQAPGKERELVAAFSWSGGTTYYADSVKGRFTISCDNAMNTVYLQLNSLKPEDNAVYYCAADSFTEVDYWGQGTQVTVSS”, the “polyreactivity (PSR sort gate)” value is “low polyreactivity”.

As to “QVQLVESGGGLVQAGGSRRLSCAASGSIFTSNAMGWYRQAPGNERDLVAVITGSTGRTHYADSVKGRFTISRDNAMNTVYLQMNSLKPEDTAVYYFSAGLTFVTNFDYWGQGTHVTVSS”, the “polyreactivity (PSR sort gate)” value was “low polyreactivity”.

As for “QVQLVESGGGLVQAGGSRRLSCAASGSIFVSNAMGWDRQAPGKERELVAAISGGCSTYYADSVKGRFTISRDNAKNTVYLQMNSLKPEDTAVYYCNALFDGYAQDLDYDYWGQGTQVTVSS”, the “polyreactivity (PSR sort gate)” value is on record as “low polyreactivity”.

On to “QVQLVESGGGLVQAGGSRRLSCAASGSTFAYYAMGWYRQAPGKERELVAAISWRGGSTYYADSVKGRFTISRDNAKNTVYLQMNSLKPEDTAVYYCATLSAWKASSYDYWGQGTQVTVSS”, for which the “polyreactivity (PSR sort gate)” value is reported as “high polyreactivity”.

With “QVQLVESGGGLVQAGGSRRLSCAASGSTFGWYVMGWYRPAPGKDREFVAAIDNSGGDTYYADSLKGRFTISRDTAKNTVYLQMNSLKPEDTAVYYCDDEAYTRASFENDYWGQGTQVTVSS”, the “polyreactivity (PSR sort gate)” value is listed as “low polyreactivity”.

As for “QVQLVESGGGLVQAGGSRRLSCAASGSTFQYNAMGWYRQAPGKDREWVAAITGSGGSTYYADSVKGRFTISRDNSKNTVYLQMNSLKPEDTAVYYCAKRVRSFNWVLARHKYDYWGQGTQVTVSS”, the “polyreactivity (PSR sort gate)” value is “low polyreactivity”.

For “QVQLVESGGGLVQAGGSVRLSCAASGLIFGGYTMGWYRQAPGKDRELVAAIDSADSTYYADSVKGRFTISRDNAKNTVYLQMNSLKPEDTAVYYCATYWYYSGPAYSLRETGGVNYWGQGTQVTVSS”, the “polyreactivity (PSR sort gate)” value was “low polyreactivity”.

In the case of “QVQLVESGGGLVQAGGSVRLSCAASGSTIPPKVMGWYREAPGKEREWVAAISWGGSSTYYADSVKGRFPISRDHAKNTVFVQKNCLQREETAVYYCNAEYRSPVYWWYYEYDYWGQGTQVTVSA”, the “polyreactivity (PSR sort gate)” value is on record as “high polyreactivity”.

“QVQLVESGGGLVQAGGSVSLSCAASGTFSPYAMGWYRQAPGKERELVADITSNTGRTYADSVKGRFTISRDNAKNTVYLKMNSLKPEDTSVYYCNTYGSGTHSSGYDYWGQGTQVTVSS”: the “polyreactivity (PSR sort gate)” value is reported as “low polyreactivity”.

“QVQLVESGGGLVQAGGTLGLSCAASGFIITQYAMGRYRQAPGKERELVAAISGNGGRTYYADSVKGRFTISRDNAKNTVYLQLNSLKPEDTAVYYCAVTRPGRRYPFGYDYWGQGTQVTVSS”: the “polyreactivity (PSR sort gate)” value was “high polyreactivity”.

Consider “QVQLVESGGGLVQAGGTLPLSCAASGFTVRSYAMGWYRQAPGEEREIVAAISRLGDSTYFADSVKGRFTISRDNAKNTVYLQMYSLITEDTAVYYCAKYGIASRFSRFDSWGQGTQVTVSS”, for which the “polyreactivity (PSR sort gate)” value is recorded as “high polyreactivity”.

Consider “QVQLVESGGGLVQAGGTLRLICADSGFTFPVYAMGWSRQAPGKERQLVAAITRSGGRTYYADSVKGRFRISRDNAKNTVYLQMNSLKPEDTAFYYCNADYPYGPGSRVRYDYWGQGTQVTVSS”, for which the “polyreactivity (PSR sort gate)” value is given as “high polyreactivity”.

Consider “QVQLVESGGGLVQAGGTLRLRCAASGSTFFPYAIGWYRPAPGKEWELVAAITSGGRTHYADSVKGRFTISRDNAKNTVYLQMMSLIPEDSAVYYCAAVVPRHLLTYRMDYWGQGNQVTVSS”, for which the “polyreactivity (PSR sort gate)” value is “high polyreactivity”.

“QVQLVESGGGLVQAGGTLRLRCAPSGSIFWGNAIGWYRQAPGKERELVAAIDWSGGSTYYADSVKGRFTISRDNAKNTVYLLMYSLKPEDTAVYFCAASGRYDYDYWGQGTQVTVSS”: the “polyreactivity (PSR sort gate)” value is recorded as “low polyreactivity”.

With “QVQLVESGGGLVQAGGTLRLSCAASGFIFCTYAMGWSRQAPGKERELVAAISSRDVSTYYADSVKGRFTISRDNAKNTVYLQMNSLKPEDTAVYYCAAEDPYYYPYEYWGQGTQVTVSS”, the “polyreactivity (PSR sort gate)” value is “high polyreactivity”.

Consider “QVQLVESGGGLVQAGGTLRLSCAASGFIFTGYTMGWYRQAPGKERELVARISSGDSTKYADSVKGRFTISRDNAKNTVYLQMNSLKPEDTAVYYCNKRHGTYGSVYYSREGYWGQGTQVTVSS”, for which the “polyreactivity (PSR sort gate)” value is listed as “high polyreactivity”.

On to “QVQLVESGGGLVQAGGTLRLSCAASGFNFASYAMGWYRQAPGKERELVDAITSDGSTNYADSVKGRFTISRDNAKNTVYLQMNSLKPEDTAVYYCAADPAKKYDQNTEYEYWGQGTQVTLSS”, for which the “polyreactivity (PSR sort gate)” value is recorded as “low polyreactivity”.

Regarding “QVQLVESGGGLVQAGGTLRLSCAASGGIFLYYAMGWYRQAPGKERELVATISSGGSTKYADSVKGRFTISRDNAMNTVYLQMNSLKPEDTAVYYCNKVFPNLYIYVVRGLIEMDYWGQGTQVTVSS”, the “polyreactivity (PSR sort gate)” value was “low polyreactivity”.

For “QVQLVESGGGLVQAGGTLRLSCAASGITFVQYAMGWYRQAPGKETELVASITRRGGSTYYADSVKGRFTISRDNAKNTVYLQMNSLKQEDTAVYYCAARWSAWRGYIFDYWGQGTQVTVSS”, the “polyreactivity (PSR sort gate)” value was “high polyreactivity”.

Take “QVQLVESGGGLVQAGGTLRLSCAASGITFWYYARGWYRPAPGKERELVAVISYSGGIKSYADSVKGRFTISRENAKNTVNLQMNSMKPEDTAVFYCYTLYGRFKAKVYKYGSWGQGTQVTVSS”: the “polyreactivity (PSR sort gate)” value is “high polyreactivity”.

For the sequence “QVQLVESGGGLVQAGGTLRLSCAASGLIFDANAMGWYRQAPGTERELVAAITGSGGRTYYADSVKGRFTISRDIAKHTVYLQMNSLKPEDTAVYYCAASSKRKYLYNYWGQGTQVTVSS”, the “polyreactivity (PSR sort gate)” value is “high polyreactivity”.

Consider “QVQLVESGGGLVQAGGTLRLSCAASGPILSRNAMAWYRQAPGKERELVAAISRSGGSTYYADSVKGRFTISRDNAKNTVYFQMNSLKPEDTAVYYSATRYMGRLDYWGQGTQVTVSS”, for which the “polyreactivity (PSR sort gate)” value is given as “high polyreactivity”.

Consider “QVQLVESGGGLVQAGGTLRLSCAASGRIFSDYAMGWYRQAPGKEREFVAAISSSGGRTYYADSVKGRFTISRDNAKNTVYLQMNSLKPEDTAVYYCNRYNGYYNTGRYGYLGQGTQVTVSS”, for which the “polyreactivity (PSR sort gate)” value was “high polyreactivity”.

Turning to “QVQLVESGGGLVQAGGTLRLSCAASGRTFKKYTMGWYRQAPGKERELVAVITSGGSTYYADSVKGRFTISRDNAKNTVYLQMNSLKPEDTAVYYCAVKYPELRTWGYYYWGQGTQVTVSS”, the “polyreactivity (PSR sort gate)” value was “high polyreactivity”.

With “QVQLVESGGGLVQAGGTLRLSCAASGRTFPSNAMGWYRQAPGKEREFVASITYSGGRTYYADSVKGRFTISRDNAKNTVYLQMNSLKPEDTAVFYCATARYRYHYYSWGQGTQVTVSS”, the “polyreactivity (PSR sort gate)” value is reported as “high polyreactivity”.
